Changes are numbered by the printed parent chain. No end group written: not given here. rhodamine = not defined here
Assays:
PKA = PKA (Homo sapiens, UniProt P17612); test: Timecourse of phosphorylation by PKA (32P-ATP); assay type: biochemical; conditions: 0.2 mM ATP
Experimental: A timecourse of phosphorylation of these peptides by PKA is run in 50 mM histidine/HCl (pH 7.0), 5 mM MgSO4, 5 mM NaF, 0.05 mM EGTA, 120 mM kcb with 0.2 mM ATP (30.9 cpm/pmol ^32P-ATP) and 0.5 μM PKA. […] Zip4T is also phosphorylated, at a slower rate, with full phosphorylation achieved in 30 minutes in this assay. In this assay, the difference in cpm recovered between the Zip4 peptides and PL919Y is due to the difference in recovery of these peptides on P81 paper. The plateau indicates full phosphorylation.
A set of timecourses of phosphorylation is performed on Zip4S using PKA and Ca^2+/Calmodulin-dependent Protein Kinase (CaMK-II), together with positive and negative controls for CaMK-II (these controls confirm that the preparation of CaMK-II posesses the expected characteristics of that enzyme). PKA phosphorylation is performed in 50 mM histidine/HCl (pH 7.0), 5 mM MgSO4, 5 mM NaF, 0.05 mM EGTA, 120 mM kcb with 0.2 mM ATP (39.72 cpm/pmol ^32P-ATP) and 0.25 μM PKA. CaMK-II phosphorylation is performed in 50 mM histidine/HCl (pH 7.0), 5 mM MgSO4, 5 mM NaF, 120 mM kcb, 0.5 mM Ca^2+, 0.037 mg/ml calmodulin with 0.2 mM ATP (39.72 cpm/pmol ^32P-ATP) and 10% crude CaMK-II. In the Ca^2+-free experiment, Ca^2+ is replaced by 0.05 mM EGTA. […]

[1] = tested on: Ca^2+/Calmodulin-dependent Protein Kinase (CaMK-II); test: Timecourse of phosphorylation by CaMK-II (32P-ATP); assay type: biochemical; conditions: 10% crude CaMK-II, 0.5 mM Ca^2+, 0.037 mg/ml calmodulin, 0.2 mM ATP
Experimental: A set of timecourses of phosphorylation is performed on Zip4S using PKA and Ca^2+/Calmodulin-dependent Protein Kinase (CaMK-II), together with positive and negative controls for CaMK-II (these controls confirm that the preparation of CaMK-II posesses the expected characteristics of that enzyme). PKA phosphorylation is performed in 50 mM histidine/HCl (pH 7.0), 5 mM MgSO4, 5 mM NaF, 0.05 mM EGTA, 120 mM kcb with 0.2 mM ATP (39.72 cpm/pmol ^32P-ATP) and 0.25 μM PKA. CaMK-II phosphorylation is performed in 50 mM histidine/HCl (pH 7.0), 5 mM MgSO4, 5 mM NaF, 120 mM kcb, 0.5 mM Ca^2+, 0.037 mg/ml calmodulin with 0.2 mM ATP (39.72 cpm/pmol ^32P-ATP) and 10% crude CaMK-II. In the Ca^2+-free experiment, Ca^2+ is replaced by 0.05 mM EGTA. […] Such specificity of a modification site in a polypeptide according to the invention is a clear advantage for use of the invention in an intracellular assay, or for measuring the activity of a particular polypeptide modifying agent in a complex mixture such as a cell lysate.

[2] = assay type: physicochemical; conditions: 10 μM peptide, pH 7.0, 20° C.
Experimental: The circular dichroism (measured in units of ellipticity) of proteins at 222 nm provides a measure of the amount of a-helix present in the structure, with a large, negative ellipticity indicting a high level of helicity. The coiled-coil has a distinctive a-helical CD spectrum with minima at 222 nm and 208 nm (O'Shea et al., 1989, Science, 243: 538–542). The CD spectra of the unmodified Zip3 and its phosphorylated form (‘Zip3P’) are determined at a sample concentration of 10 μM in 150 mM KCB, 42.2 mM K2HPO4, 7.8 mM KH2PO4, pH 7.0 at 20° C.; spectra are recorded using a 1 mm pathlength cell in a Jasco J-715 spectropolarimeter with a Jasco PTC-348W Peltier temperature control unit. Peptide concentration is determined by tyrosine absorbance at 280 nm in 6M GuHCl. […] The effipticities of Zip3 and Zip3P at 222 nm with increasing temperature are measured. The steep portion of the sigmoid curve for Zip3 indicates the unfolding of the molecule. It is clear that this leucine zipper peptide begins to unfold at around 35° C. and is completely unfolded by 70° C. […]
The circular dichroism (measured in units of ellipticity) of proteins at 222 nm provides a measure of the amount of a-helix present in the structure, with a large, negative ellipticity indicting a high level of helicity. […] In all experiments described herein, peptide concentration is determined by tyrosine absorbance at 280 nm in 6M GnHCl.

chymotrypsin = test: Time-course digestion with chymotrypsin, MALDI-TOF; assay type: biochemical
Experimental: A time-course digestion of Peptide A with chymotrypsin is analysed by MALDI-TOF mass spectrometry. On the protein matrix (MS, denoted SA on each spectrogram) the Peptide A substrate as 4245 Da is evident. […] The C-terminal fragment appears to be cleaved at a second site (after L-26) generating a product of 1100 Da, although the final peptide fragment of about 990 Da is not observed in the MS.

aminopeptidase = test: Aminopeptidase digestion, FRET; assay type: biochemical
carboxypeptidase = test: Carboxypeptidase digestion, FRET; assay type: biochemical
peptide D = test: FRET of fluorescein-labelled peptides N and C with rhodamine-labelled peptide D; assay type: binding; conditions: no peptidase
[3] = biological target: T1, Pep 1F (Pep 1 peptide labelled with fluorescein) (not fully specified; fluorescein label; the lysine residue is inserted for labelling purposes); test: FRET in solution, 50 µM Pep 1F and 50 µM Pep 2R, 37 °C
T1 construct: Unphosphorylated
T1 peptide: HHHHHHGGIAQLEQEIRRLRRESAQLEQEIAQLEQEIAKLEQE
Experimental: Fluorescence emission of fluorescein is measured at 520 nm by exciting at appropriate wavelength (450 nm). Pep 2R (Pep 2 labelled with rhodamine) at concentrations equal to that of Pep 1F (50 μM) is added and the fluorescence emission of Pep 1F and Pep 2R are monitored.

Zip4SF = biological target: T2, Zip4SF (fluorescein label (on the cysteine residue, by analogy with Zip3F)); test: FRET in solution
T2 construct: read as Zip4S with fluorescein, like Zip3F; also called Zip4S labelled with fluorescein
T2 peptide: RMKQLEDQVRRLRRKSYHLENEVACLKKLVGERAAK

[4] = biological target: T3, Peptide 4 (SEQ ID NO. 56) (fluorescein label, by the procedure of Example 10 (not restated)); test: FRET, procedure of Example 10
T3 construct: Immobilised peptide of the caspase reporter; also called Peptides 4
T3 peptide: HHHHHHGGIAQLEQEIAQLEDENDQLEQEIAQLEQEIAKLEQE

Pep 1 = biological target: T4, Pep 1; test: statement in Example 3
T4 construct: Unphosphorylated; immobilised by its His tag on a Ni-NTA sensor chip in the Biacore assay
T4 peptide: T1 peptide

[5] = biological target: T5, Peptide N, fluorescein-labelled (fluorescein label at the K residue); test: FRET, peptide N immobilised
T5 peptide: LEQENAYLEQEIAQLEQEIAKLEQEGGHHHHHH

[6] = biological target: T6, Peptide C, fluorescein-labelled (fluorescein label (site said to be 'the C and K residues as before', but the entry has neither Cys nor Lys)); test: FRET, peptide C immobilised
T6 peptide: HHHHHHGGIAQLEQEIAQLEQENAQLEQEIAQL

[7] = biological target: T7, Peptide 3 (SEQ ID NO. 54), labelled with fluorescein (fluorescein at the lysine residue); test: FRET, Peptide 3 immobilised
T7 construct: also called peptides 3
T7 peptide: T3 peptide with D21Q, D24R

With “R MKQLEDQ VRRLRRK SYHLENE VACLKKL VGERAAK (RMKQLEDQVRRLRRKSYHLENEVACLKKLVGERAAK) [Zip4S]” the “extent of phosphorylation by PKA” value (PKA; 0.25 μM PKA) was “complete phosphorylation”, the “phosphorylation by PKA (substrate quality, rate)” value (PKA; 0.5 μM PKA, compared with known substrate PL919Y) was “good substrate” and the “phosphorylation by CaMK-II” value [1] was “unable to phosphorylate”.

For “HHHHHHGGIAQLEQEIAQLEQENAYLEQEIAQLEQEIAKLEQE [Peptide A]”, the “CD spectrum (structure indicated)” value [2] was “classic coiled-coil” and the digestion by chymotrypsin (chymotrypsin) was “degraded completely over two hours”.

In the case of “LEQENAYLEQEIAQLEQEIAKLEQEGGHHHHHH [Peptide N]”, the “FRET of pair with peptide D after addition of aminopeptidase” value (aminopeptidase) is reported as “complete loss of FRET”, the “FRET of pair with peptide D after addition of carboxypeptidase” value (carboxypeptidase) is reported as “not affected” and the “FRET in the presence of rhodamine-labelled peptide D” value (peptide D) is reported as “FRET is observed”.

IAQLKQEIAQLKQKNAQLKQKIAQLKQKIC(rhodamine)QLKQK (reading uncertain) [Pep 2R (Pep 2 peptide labelled with rhodamine)]: binds [3].

B1: Zip4SR (peptide)
peptide: T2 peptide
modifications: also: rhodamine label, read from undefined name by analogy with Zip3R
notes: read as Zip4S with rhodamine, like Zip3R; also called Zip4S labelled with rhodamine
B1: binds (Zip4SF).

IAQLKQKIAQLKQKNAQLKQKIAQLKQKICQLKQK (also: rhodamine label by procedure, site not given here) [Peptide 44 (SEQ ID NO. 57)]: binds [4].

IAQLKQEIAQLKQKNAQLKQKIAQLKQKICQLKQK [Pep 2]: binds (Pep 1).

IAQLKQKIAQLKQKNAQLKQKIAQLKQKIC(rhodamine)QLKQK (reading uncertain) [Peptide D, rhodamine-labelled]: binds [5]; binds [6].

IAQLKQKIAQLKQKNAQLKQKIAQLKQKIC(rhodamine)QLKQK (reading uncertain) [peptide 33 (SEQ ID NO. 55), labelled with rhodamine]: binds [7].
